Experiment [1] deals with T1, human Gremlin_Q27P (C-terminal His-tag) (human, UniProt O60565 25-184).
T1 construct: culture supernatant used
T1 chain: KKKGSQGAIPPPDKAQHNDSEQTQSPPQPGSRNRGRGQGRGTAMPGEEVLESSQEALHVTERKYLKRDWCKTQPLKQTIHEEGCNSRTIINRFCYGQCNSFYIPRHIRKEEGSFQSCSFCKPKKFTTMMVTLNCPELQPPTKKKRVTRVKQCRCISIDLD
The experiment is described as follows: BLI (Octet): antibody loaded on AHC sensor, supernatant of the gremlin variant as analyte. The procedure:
(§1) The supernatant for Gremlin WT and mutants to be tested were added in the Association Column of the plate, 100 ul per well. Media or KD buffer was used as a reference control. Put AHC sensors in the 1st Baseline Column for 60 s to get the 1st baseline, then in the Loading Column for 300 s to capture the Gremlin antibody. After that, put the sensors in the 2nd Baseline Column for 60 s to get the 2nd baseline. Then put them in the Association Column for 300 s to let Gremlin/Gremlin Ab associate completely, put the sensors in the dissociation Column for 300 s. Analyze the group data by ForteBio (Octet96)
In general terms: BLI is a label-free optical method that tracks binding on a fibre tip over time.

The target in experiment [2] is T2, human Gremlin N33T (C-terminal His-tag) (human, UniProt O60565 25-184).
T2 construct: culture supernatant used
T2 chain: T1 chain with P27Q, N33T
The description is as above. How it is done: as §1

In experiment [3] the target is T3, human Gremlin_Q27P/N33T (C-terminal His-tag) (human, UniProt O60565 25-184 at identity 1.00)).
T3 construct: culture supernatant used
T3 chain: T1 chain with N33T
The experiment is described as above. How it is done:
as §1

Experiment [4] concerns the target T4, HGREM1-His (ACRO) (human, UniProt O60565 25-184).
T4 construct: Lys25-Asp184 of NP_037504 with C-terminal polyhistidine tag (ACRO GR1-H52H3); they are put here; also called hGREM1 (ACRO); human gremlin (ACRO)
T4 sequence: T1 chain with P27Q
In words: ELISA on coated Gremlin-his; unit from the axis Ab(nM). How it is done:
Clear polystyrene plates (BEAVER) were coated with 100 μl/well of a 0.5 μg/ml human gremlin (ACRO) and DAN (Sinobiological) in high pH coating buffer overnight at 4° C. Then the plates were washed once on an automatic plate washer using PBS+0.1% Tween 20 (Sigma). 100 μl of block solution consisting of PBS+1% BSA+1% normal goat serum+0.5% Tween 20 (Sigma) was added to each well and incubated at room temperature for 2 hours. Then 100 ul of antibodies (hybridoma or chimeric antibody 36F5, chimeric antibody 67G11, chimeric antibody 42B9) in antibody dilution buffer containing PBS+1% BSA+1% normal goat serum+0.01% Tween 20 starting from 2 μg/ml (13.33 nM) and then 4 fold serial dilution were added to each well of the plate and incubated for 1 hours at room temperature. Afterward the plates were washed three times with 200 ul of PBS+0.1% Tween20 followed by adding 100 μl/well 1:10000 Goat anti mouse IgG-HRP or mouse anti-human IgG-HRP (abcam), and incubate for 1 hour at room temperature. They were then washed 3× with PBS+0.1% Tween20. Finally, 100 μl/well of TMB (InnoReagents) was added to each well and after 2 minutes add 50 ul of stop solution to each well. The plates were read on a Multiscan FC microplate reader (Thermo Scientific) at 450 nm.
For orientation: ELISA stands for enzyme-linked immunosorbent assay.

Experiment [5] addresses T4, HGREM1-His (ACRO). In words: blocking ELISA, Human Gremlin-1 binding to BMP7; column OD450. How it is done:
In addition, the ability of serial dilutions of antibodies provided herein to block Gremlin binding to human BMP2/4/7 was also examined via ELISA. Plates were coated with recombinant human BMP2/4/7 (0.5 μg/ml) overnight and then serial dilutions of antibodies were incubated with 1 μg/ml of human Gremlin-his modified for 1 h at RT before this complex was added to coated plates and allowed to incubate for an additional hour at RT. The plates were then washed and added with anti-his HRP (GenScript). Plates were then developed with a TMB solution and stopped by adding stop solution. The plates were read on a plate reader at 450 nm. […] The chimeric anti-gremlin 1 antibodies (69H5-chi) and chimeric anti-gremlin 1 antibodies (22F1-chi) also can inhibit the binding of gremlin to BMP2 and BMP4 (see, FIG. 3E and FIG. 3F). The chimeric anti-gremlin 1 antibodies (56C11-chi) can inhibit the binding of gremlin to BMP2 (see, FIG. 3E).

Residue numbers refer to the chain shown, from its start.

B1: 14E3 (antibody, V domains shown)
VH: QIQLVQSGPELKKPGETVKISCKTSGSTFTTYGMAWMKQAPGKGLTWMGWINTLSGEPTYADDFKGRFAFSLKTSANTAYLQINNLKNEDAATYFCAREPMDYWGQGTSVIVSS
VL: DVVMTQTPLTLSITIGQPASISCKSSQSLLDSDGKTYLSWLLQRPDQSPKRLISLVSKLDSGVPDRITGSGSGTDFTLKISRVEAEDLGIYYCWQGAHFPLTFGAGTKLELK
notes: mouse hybridoma antibody; also called hybridoma 14E3; anti-gremlin1 antibody 14E3
On to B1, for which the binding result in experiment [1], in experiment [2] and in experiment [3] was “binds” throughout.

B2: 36F5 (antibody, V domains shown)
VH: QVQLQQSGAELARPGASVKLSCKASGYSFTSSGIGWVKQRSGQGLEWIGEIYPRSGNTYNNEKFKGKATLTADKSSSTVYMELRSLTSEDSAVYFCVREAYSHHYYAMDYWGQGTSVTVFS
VL: DVLMTQTPLSLPVSLGGQASISCRSSQSLLHSNGNTYLEWYLQKPGQSPKLLIYKVSNRFSGVPDRLSGSGSGTDFTLKISRVEAEDLGVYYCFQGSHVPFTFGSGTKLEIN
notes: mouse hybridoma antibody; also called hybridoma 36F5
The EC50 is the concentration giving half of the maximal effect. Read a low EC50 as greater potency. As a reminder, the IC50 is the point on the concentration scale where inhibition reaches its midpoint. Read a high IC50 as a need for much substance. B2 displayed a 50% effective concentration (EC50) with HGREM1-His (ACRO) [4] of 30.9 pM. Further, the concentration for half-maximal inhibition (IC50) with HGREM1-His (ACRO) [5] was found to be 0.683 µg/mL.

The values above are taken from patent publication US20240294622A1 (SUZHOU TRANSCENTA THERAPEUTICS, published 2024).
